Source: US20160272683A1 (Novo Nordisk, published 2016)
One block for each binder: values may come before it. Numbered stars: 1 amine (or outer) side, 2 acyl side, 3 side chain; on linkers, the order of the positions; unused ones are H or OH. * marks the point of attachment. C20 diacid = O=C(O)CCCCCCCCCCCCCCCCCCC(=O)*; C18 diacid = O=C(O)CCCCCCCCCCCCCCCCC(=O)*; γGlu = O=C(O)[C@H](CCC(=O)[*:2])N[*:1]; AEEA = NCCOCCOCC(=O)O

Legend:
[1] = molecular target: T1, human amylin receptor (amylin 3(a) receptor: human calcitonin receptor with RAMP-3) (human, UniProt P30988 25-474; O60896 24-148, limits assumed); experiment: SPA competition vs 125I-rat amylin, membranes with human CTR + RAMP-3 (Assay V)
T1 construct: whole, on cells; Assay V: membranes of the Amylin 3(a)/CRE-luc BHK cells on SPA beads; also called hAmylin-R
T1 sequence (looked up) 1: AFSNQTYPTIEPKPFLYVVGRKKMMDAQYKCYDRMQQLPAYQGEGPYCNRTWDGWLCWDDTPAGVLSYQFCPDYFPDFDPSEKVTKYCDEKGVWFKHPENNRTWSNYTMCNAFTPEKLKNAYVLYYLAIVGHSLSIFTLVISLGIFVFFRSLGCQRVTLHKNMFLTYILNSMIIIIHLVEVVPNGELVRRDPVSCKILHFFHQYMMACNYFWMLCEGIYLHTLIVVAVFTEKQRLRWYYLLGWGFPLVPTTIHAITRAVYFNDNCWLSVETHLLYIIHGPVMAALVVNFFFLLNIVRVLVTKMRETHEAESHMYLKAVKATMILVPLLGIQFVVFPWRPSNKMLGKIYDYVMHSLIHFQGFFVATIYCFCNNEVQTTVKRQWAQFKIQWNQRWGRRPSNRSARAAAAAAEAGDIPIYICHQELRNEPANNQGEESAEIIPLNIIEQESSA
T1 sequence (looked up) 2: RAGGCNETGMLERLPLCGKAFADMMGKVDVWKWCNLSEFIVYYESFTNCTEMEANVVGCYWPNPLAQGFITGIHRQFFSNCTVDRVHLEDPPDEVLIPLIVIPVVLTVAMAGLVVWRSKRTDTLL

[2] = molecular target: T2, human calcitonin receptor (human, UniProt P30988 25-474); experiment: SPA competition vs 125I-calcitonin, membranes with human CTR (Assay VII)
T2 construct: whole, on cells; Assay VII: membranes on SPA beads; also called hCT-R; hCTR
T2 sequence (looked up): T1 sequence (looked up) 1
Summary of the method: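 SPA competition on membranes from BHK tk'ts 13 cells stably expressing human calcitonin receptor plus CRE-luciferase reporter; membranes 35 ng/μL final with 0.05 mg/well beads.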

IC50 [1]: 0.216 nM
IC50 [2]: 0.053 nM
B1: [N-terminal(C20 diacid-gGlu), des1, 4G, 9T, 15Q, 21Q, 23Y, 25P, 30S, 31G, 32T, 33Y]mimylin (peptide)
peptide: {C20 diacid-γGlu}-ASGLSTATLGRLSQELHELQTYPPTETGSGTY-NH2
SMILES: CC(C)C[C@H](NC(=O)CNC(=O)[C@H](CO)NC(=O)[C@H](C)NC(=O)CC[C@H](NC(=O)CCCCCCCCCCCCCCCCCCC(=O)O)C(=O)O)C(=O)N[C@@H](CO)C(=O)N[C@H](C(=O)N[C@@H](C)C(=O)N[C@H](C(=O)N[C@@H](CC(C)C)C(=O)NCC(=O)N[C@@H](CCCNC(=N)N)C(=O)N[C@@H](CC(C)C)C(=O)N[C@@H](CO)C(=O)N[C@@H](CCC(N)=O)C(=O)N[C@@H](CCC(=O)O)C(=O)N[C@@H](CC(C)C)C(=O)N[C@@H](Cc1c[nH]cn1)C(=O)N[C@@H](CCC(=O)O)C(=O)N[C@@H](CC(C)C)C(=O)N[C@@H](CCC(N)=O)C(=O)N[C@H](C(=O)N[C@@H](Cc1ccc(O)cc1)C(=O)N1CCC[C@H]1C(=O)N1CCC[C@H]1C(=O)N[C@H](C(=O)N[C@@H](CCC(=O)O)C(=O)N[C@H](C(=O)NCC(=O)N[C@@H](CO)C(=O)NCC(=O)N[C@H](C(=O)N[C@@H](Cc1ccc(O)cc1)C(N)=O)[C@@H](C)O)[C@@H](C)O)[C@@H](C)O)[C@@H](C)O)[C@@H](C)O)[C@@H](C)O
notes: mimylin derivative; des1 = residue 1 deleted

IC50 [1]: 0.131 nM
IC50 [2]: 0.051 nM
B2: [N-terminal(C20 diacid-gGlu), des1, 4G, 15Q, 21Q, 23Y, 30S, 31Q, 32T, 33Y]mimylin (peptide)
peptide: {C20 diacid-γGlu}-ASGLSTAALGRLSQELHELQTYPRTETGSQTY-NH2
SMILES: CC(C)C[C@H](NC(=O)CNC(=O)[C@H](CO)NC(=O)[C@H](C)NC(=O)CC[C@H](NC(=O)CCCCCCCCCCCCCCCCCCC(=O)O)C(=O)O)C(=O)N[C@@H](CO)C(=O)N[C@H](C(=O)N[C@@H](C)C(=O)N[C@@H](C)C(=O)N[C@@H](CC(C)C)C(=O)NCC(=O)N[C@@H](CCCNC(=N)N)C(=O)N[C@@H](CC(C)C)C(=O)N[C@@H](CO)C(=O)N[C@@H](CCC(N)=O)C(=O)N[C@@H](CCC(=O)O)C(=O)N[C@@H](CC(C)C)C(=O)N[C@@H](Cc1c[nH]cn1)C(=O)N[C@@H](CCC(=O)O)C(=O)N[C@@H](CC(C)C)C(=O)N[C@@H](CCC(N)=O)C(=O)N[C@H](C(=O)N[C@@H](Cc1ccc(O)cc1)C(=O)N1CCC[C@H]1C(=O)N[C@@H](CCCNC(=N)N)C(=O)N[C@H](C(=O)N[C@@H](CCC(=O)O)C(=O)N[C@H](C(=O)NCC(=O)N[C@@H](CO)C(=O)N[C@@H](CCC(N)=O)C(=O)N[C@H](C(=O)N[C@@H](Cc1ccc(O)cc1)C(N)=O)[C@@H](C)O)[C@@H](C)O)[C@@H](C)O)[C@@H](C)O)[C@@H](C)O
notes: as for B1

IC50 [1]: 0.166 nM
IC50 [2]: 0.15 nM
B3: [N-terminal(C20 diacid-gGlu), des1, 4G, 15Q, 21Q, 23Y, 25H, 30S, 31G, 32T, 33Y]mimylin (peptide)
peptide: {C20 diacid-γGlu}-ASGLSTAALGRLSQELHELQTYPHTETGSGTY-NH2
SMILES: CC(C)C[C@H](NC(=O)CNC(=O)[C@H](CO)NC(=O)[C@H](C)NC(=O)CC[C@H](NC(=O)CCCCCCCCCCCCCCCCCCC(=O)O)C(=O)O)C(=O)N[C@@H](CO)C(=O)N[C@H](C(=O)N[C@@H](C)C(=O)N[C@@H](C)C(=O)N[C@@H](CC(C)C)C(=O)NCC(=O)N[C@@H](CCCNC(=N)N)C(=O)N[C@@H](CC(C)C)C(=O)N[C@@H](CO)C(=O)N[C@@H](CCC(N)=O)C(=O)N[C@@H](CCC(=O)O)C(=O)N[C@@H](CC(C)C)C(=O)N[C@@H](Cc1c[nH]cn1)C(=O)N[C@@H](CCC(=O)O)C(=O)N[C@@H](CC(C)C)C(=O)N[C@@H](CCC(N)=O)C(=O)N[C@H](C(=O)N[C@@H](Cc1ccc(O)cc1)C(=O)N1CCC[C@H]1C(=O)N[C@@H](Cc1c[nH]cn1)C(=O)N[C@H](C(=O)N[C@@H](CCC(=O)O)C(=O)N[C@H](C(=O)NCC(=O)N[C@@H](CO)C(=O)NCC(=O)N[C@H](C(=O)N[C@@H](Cc1ccc(O)cc1)C(N)=O)[C@@H](C)O)[C@@H](C)O)[C@@H](C)O)[C@@H](C)O)[C@@H](C)O
notes: as for B1

IC50 [1]: 0.72 nM
IC50 [2]: 0.651 nM
B4: [N-terminal(C20 diacid-gGlu), des1, 4G, 9V, 12K, 15Q, 21Q, 23Y, 25P, 30S, 31G, 32T, 33Y]mimylin (peptide)
peptide: {C20 diacid-γGlu}-ASGLSTAVLGKLSQELHELQTYPPTETGSGTY-NH2
SMILES: CC(C)C[C@H](NC(=O)CNC(=O)[C@H](CO)NC(=O)[C@H](C)NC(=O)CC[C@H](NC(=O)CCCCCCCCCCCCCCCCCCC(=O)O)C(=O)O)C(=O)N[C@@H](CO)C(=O)N[C@H](C(=O)N[C@@H](C)C(=O)N[C@H](C(=O)N[C@@H](CC(C)C)C(=O)NCC(=O)N[C@@H](CCCCN)C(=O)N[C@@H](CC(C)C)C(=O)N[C@@H](CO)C(=O)N[C@@H](CCC(N)=O)C(=O)N[C@@H](CCC(=O)O)C(=O)N[C@@H](CC(C)C)C(=O)N[C@@H](Cc1c[nH]cn1)C(=O)N[C@@H](CCC(=O)O)C(=O)N[C@@H](CC(C)C)C(=O)N[C@@H](CCC(N)=O)C(=O)N[C@H](C(=O)N[C@@H](Cc1ccc(O)cc1)C(=O)N1CCC[C@H]1C(=O)N1CCC[C@H]1C(=O)N[C@H](C(=O)N[C@@H](CCC(=O)O)C(=O)N[C@H](C(=O)NCC(=O)N[C@@H](CO)C(=O)NCC(=O)N[C@H](C(=O)N[C@@H](Cc1ccc(O)cc1)C(N)=O)[C@@H](C)O)[C@@H](C)O)[C@@H](C)O)[C@@H](C)O)C(C)C)[C@@H](C)O
notes: as for B1

IC50 [1]: 0.297 nM
IC50 [2]: 0.085 nM
B5: [N-terminal(C20 diacid-gGlu), des1, 9V, 15Q, 21Q, 23Y, 30S, 31G, 32T, 33Y]mimylin (peptide)
peptide: {C20 diacid-γGlu}-ASELSTAVLGRLSQELHELQTYPRTETGSGTY-NH2
SMILES: CC(C)C[C@H](NC(=O)[C@H](CCCNC(=N)N)NC(=O)CNC(=O)[C@H](CC(C)C)NC(=O)[C@@H](NC(=O)[C@H](C)NC(=O)[C@@H](NC(=O)[C@H](CO)NC(=O)[C@H](CC(C)C)NC(=O)[C@H](CCC(=O)O)NC(=O)[C@H](CO)NC(=O)[C@H](C)NC(=O)CC[C@H](NC(=O)CCCCCCCCCCCCCCCCCCC(=O)O)C(=O)O)[C@@H](C)O)C(C)C)C(=O)N[C@@H](CO)C(=O)N[C@@H](CCC(N)=O)C(=O)N[C@@H](CCC(=O)O)C(=O)N[C@@H](CC(C)C)C(=O)N[C@@H](Cc1c[nH]cn1)C(=O)N[C@@H](CCC(=O)O)C(=O)N[C@@H](CC(C)C)C(=O)N[C@@H](CCC(N)=O)C(=O)N[C@H](C(=O)N[C@@H](Cc1ccc(O)cc1)C(=O)N1CCC[C@H]1C(=O)N[C@@H](CCCNC(=N)N)C(=O)N[C@H](C(=O)N[C@@H](CCC(=O)O)C(=O)N[C@H](C(=O)NCC(=O)N[C@@H](CO)C(=O)NCC(=O)N[C@H](C(=O)N[C@@H](Cc1ccc(O)cc1)C(N)=O)[C@@H](C)O)[C@@H](C)O)[C@@H](C)O)[C@@H](C)O
notes: as for B1

IC50 [1]: 0.152 nM
IC50 [2]: 0.067 nM
B6: [N-terminal(C20 diacid-gGlu), des1, 4G, 9V, 15Q, 21Q, 23Y, 30S, 31Q, 32T, 33Y]mimylin (peptide)
peptide: {C20 diacid-γGlu}-ASGLSTAVLGRLSQELHELQTYPRTETGSQTY-NH2
SMILES: CC(C)C[C@H](NC(=O)CNC(=O)[C@H](CO)NC(=O)[C@H](C)NC(=O)CC[C@H](NC(=O)CCCCCCCCCCCCCCCCCCC(=O)O)C(=O)O)C(=O)N[C@@H](CO)C(=O)N[C@H](C(=O)N[C@@H](C)C(=O)N[C@H](C(=O)N[C@@H](CC(C)C)C(=O)NCC(=O)N[C@@H](CCCNC(=N)N)C(=O)N[C@@H](CC(C)C)C(=O)N[C@@H](CO)C(=O)N[C@@H](CCC(N)=O)C(=O)N[C@@H](CCC(=O)O)C(=O)N[C@@H](CC(C)C)C(=O)N[C@@H](Cc1c[nH]cn1)C(=O)N[C@@H](CCC(=O)O)C(=O)N[C@@H](CC(C)C)C(=O)N[C@@H](CCC(N)=O)C(=O)N[C@H](C(=O)N[C@@H](Cc1ccc(O)cc1)C(=O)N1CCC[C@H]1C(=O)N[C@@H](CCCNC(=N)N)C(=O)N[C@H](C(=O)N[C@@H](CCC(=O)O)C(=O)N[C@H](C(=O)NCC(=O)N[C@@H](CO)C(=O)N[C@@H](CCC(N)=O)C(=O)N[C@H](C(=O)N[C@@H](Cc1ccc(O)cc1)C(N)=O)[C@@H](C)O)[C@@H](C)O)[C@@H](C)O)[C@@H](C)O)C(C)C)[C@@H](C)O
notes: as for B1

IC50 [1]: 0.371 nM
IC50 [2]: 0.12 nM
B7: [N-terminal(C18 diacid-gGlu-2xOEG), des1, 4G, 9V, 15Q, 21Q, 23Y, 30S, 31G, 32T, 33Y]mimylin (peptide)
peptide: {C18 diacid-γGlu-AEEA-AEEA}-ASGLSTAVLGRLSQELHELQTYPRTETGSGTY-NH2
SMILES: CC(C)C[C@H](NC(=O)CNC(=O)[C@H](CO)NC(=O)[C@H](C)NC(=O)COCCOCCNC(=O)COCCOCCNC(=O)CC[C@H](NC(=O)CCCCCCCCCCCCCCCCC(=O)O)C(=O)O)C(=O)N[C@@H](CO)C(=O)N[C@H](C(=O)N[C@@H](C)C(=O)N[C@H](C(=O)N[C@@H](CC(C)C)C(=O)NCC(=O)N[C@@H](CCCNC(=N)N)C(=O)N[C@@H](CC(C)C)C(=O)N[C@@H](CO)C(=O)N[C@@H](CCC(N)=O)C(=O)N[C@@H](CCC(=O)O)C(=O)N[C@@H](CC(C)C)C(=O)N[C@@H](Cc1c[nH]cn1)C(=O)N[C@@H](CCC(=O)O)C(=O)N[C@@H](CC(C)C)C(=O)N[C@@H](CCC(N)=O)C(=O)N[C@H](C(=O)N[C@@H](Cc1ccc(O)cc1)C(=O)N1CCC[C@H]1C(=O)N[C@@H](CCCNC(=N)N)C(=O)N[C@H](C(=O)N[C@@H](CCC(=O)O)C(=O)N[C@H](C(=O)NCC(=O)N[C@@H](CO)C(=O)NCC(=O)N[C@H](C(=O)N[C@@H](Cc1ccc(O)cc1)C(N)=O)[C@@H](C)O)[C@@H](C)O)[C@@H](C)O)[C@@H](C)O)C(C)C)[C@@H](C)O
notes: mimylin derivative; des1 = residue 1 deleted; also called Ex. #121; 121

IC50 [1]: 0.159 nM
IC50 [2]: 0.05 nM
B8: [N-terminal(C20 diacid-gGlu-2xOEG), des1, 30S, 31G]mimylin (peptide)
peptide: {C20 diacid-γGlu-AEEA-AEEA}-ASELSTAALGRLSAELHELATLPRTETGSGSP-NH2
notes: mimylin derivative; des1 = residue 1 deleted; also called Ex. #42; 42
